# Literature values as cited in article PMC10823516.
# Target: HER2 ECD (Homo sapiens) (UniProt P04626)
substance,measurement,value
Trastuzumab Fab Fab,Kd,2 nM
